Source: patent US5262522

Experiments:
[1] = biological target: Receptor comprising gp130 (B10G) and LIF-R (pHLIFR-65) co-expressed on COS-7 cells (human); experiment: Scatchard analysis of 125I-oncostatin M binding to COS-7 cells co-transfected with B10G and pHLIFR-65 (curve A of FIG. 2), phthalate oil separation
[2] = biological target: High affinity oncostatin M receptors on non-transfected COS-7 cells; experiment: Scatchard analysis of 125I-oncostatin M binding to non-transfected COS-7 cells (FIG. 3 experiment), phthalate oil separation
[3] = biological target: T1, Human gp130 encoded by plasmid B10G, expressed on COS-7 cells (human); experiment: Scatchard analysis of 125I-oncostatin M binding to COS-7 cells transfected with B10G alone (FIG. 3 experiment), phthalate oil separation
T1 sequence: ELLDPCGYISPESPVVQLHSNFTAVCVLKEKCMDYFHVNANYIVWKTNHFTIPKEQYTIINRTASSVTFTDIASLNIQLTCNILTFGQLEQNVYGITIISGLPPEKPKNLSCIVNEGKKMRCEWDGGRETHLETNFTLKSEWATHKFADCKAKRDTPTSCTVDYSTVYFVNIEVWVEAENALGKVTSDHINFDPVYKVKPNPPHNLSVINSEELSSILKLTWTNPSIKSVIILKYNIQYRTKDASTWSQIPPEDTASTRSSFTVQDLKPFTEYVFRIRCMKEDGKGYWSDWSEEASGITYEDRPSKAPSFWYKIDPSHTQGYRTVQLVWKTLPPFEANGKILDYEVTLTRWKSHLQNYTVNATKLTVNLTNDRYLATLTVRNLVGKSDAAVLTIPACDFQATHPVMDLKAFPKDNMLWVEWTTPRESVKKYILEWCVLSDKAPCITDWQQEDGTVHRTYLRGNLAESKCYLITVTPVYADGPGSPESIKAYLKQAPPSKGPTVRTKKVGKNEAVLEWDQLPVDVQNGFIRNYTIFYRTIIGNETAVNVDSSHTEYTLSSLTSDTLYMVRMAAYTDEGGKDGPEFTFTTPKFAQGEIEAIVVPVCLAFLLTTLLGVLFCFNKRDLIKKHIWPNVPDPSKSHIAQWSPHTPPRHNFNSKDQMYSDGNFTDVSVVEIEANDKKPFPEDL

Kd [1]: 0.24 nM
Kd [2]: 0.36 nM
Kd [3]: 7.7 nM
B1: Oncostatin M (ligand, UniProt P13725 26-221, looked up, species assumed)
Oncostatin-M: AAIGSCSKEYRVLLGQLQKQTDLMQDTSRLLDPYIRIQGLDVPKLREHCRERPGAFPSEETLRGLGRRGFLQTLNATLGCVLHRLADLEQRLPKAQDLERSGLNIEDLEKLQMARPNILGLRNNIYCMAQLLDNSDTAEPTKAGRGASQPPTPTPASDAFQRKLEGCRFLHGYHRFMHSVGRVFSKWGESPNRSRR
modifications: 125I label in some uses
